Reference: the supplement of paper PMC9233669
Variants at the floor of the assay were thinned out.

Columns and labels:
biotinyl-Val-oxazolone = assay: self-aminoacylation, catalytic enhancement (BVO) (fold over background); higher = more active; k-Seq, kA / k0A0; sequences stand for … in GGGAAUGGAUCCACAUCUACGAAUUC…UUCACUGCAGACUUGACGAAGCUG
In short: (§1)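 Mutagenized RNA pools with a 21-nt variable region (0.43 μM) reacted with each biotinyl-aminoacyl-oxazolone at 2–1250 μM. Reactions ran in 50 μL HEPES/NaCl/KCl/MgCl2/CaCl2 buffer with 5% acetonitrile, pH 6.9–7.0, for 90 minutes at room temperature. Streptavidin-captured RNA was quantified by triplicate qPCR and Illumina sequencing, and per-sequence fraction reacted was fit to a pseudo-first-order model with 1000 bootstraps. Catalytic enhancement is median kA divided by the uncatalyzed rate, the low-activity peak of a bimodal Gaussian fit.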

biotinyl-Trp-oxazolone = assay: self-aminoacylation, catalytic enhancement (BWO) (fold over background); higher = more active; k-Seq, kA / k0A0; sequences stand for … in GGGAAUGGAUCCACAUCUACGAAUUC…UUCACUGCAGACUUGACGAAGCUG
In short: as §1

biotinyl-Met-oxazolone = assay: self-aminoacylation, catalytic enhancement (BMO) (fold over background); higher = more active; k-Seq, kA / k0A0; sequences stand for … in GGGAAUGGAUCCACAUCUACGAAUUC…UUCACUGCAGACUUGACGAAGCUG
In short: as §1

biotinyl-Leu-oxazolone = assay: self-aminoacylation, catalytic enhancement (BLO) (fold over background); higher = more active; k-Seq, kA / k0A0; sequences stand for … in GGGAAUGGAUCCACAUCUACGAAUUC…UUCACUGCAGACUUGACGAAGCUG
In short: as §1

biotinyl-Phe-oxazolone = assay: self-aminoacylation, catalytic enhancement (BFO) (fold over background); higher = more active; k-Seq, kA / k0A0; sequences stand for … in GGGAAUGGAUCCACAUCUACGAAUUC…UUCACUGCAGACUUGACGAAGCUG
In short: as §1

biotinyl-Ile-oxazolone = assay: self-aminoacylation, catalytic enhancement (BIO) (fold over background); higher = more active; k-Seq, kA / k0A0; sequences stand for … in GGGAAUGGAUCCACAUCUACGAAUUC…UUCACUGCAGACUUGACGAAGCUG
In short: as §1

Sequence	self-aminoacylation (biotinyl-Val-oxazolone)	self-aminoacylation (biotinyl-Trp-oxazolone)	self-aminoacylation (biotinyl-Met-oxazolone)	self-aminoacylation (biotinyl-Leu-oxazolone)	self-aminoacylation (biotinyl-Phe-oxazolone)	self-aminoacylation (biotinyl-Ile-oxazolone)
AUCCACCUAGGUCAGCGGGUG [Fam2.2 aminoacylation ribozyme variant]	4.02	4.43	3.79	5.2	31.2	3.68
AUUACCCUGGUCAUCGAGAUA [Fam2.1 aminoacylation ribozyme variant]	2.2	3.19	3.42	3.19	7.71	1.78
CUACUUCAAACAAUGUGUCUG [Fam1A.1 aminoacylation ribozyme variant]	0.848	0.583	0.662	0.716	0.725	0.838
AUUAGCCUGGUCAUCGAAUGA [Fam2.1 aminoacylation ribozyme variant]	1.39	1.27	1.43	1.48	1.23	1.36
AUUACUCUCGUCAUCGAGUGA [Fam2.1 aminoacylation ribozyme variant]	2.09	4.11	2.92	3.39	8.87	2.11
CUACUUCAAACAAUCGCUCAG [Fam1A.1 aminoacylation ribozyme variant]	0.689	0.671	0.679	0.52	1	0.884
CUACUUCAAACAAUCGAACUG [Fam1A.1 aminoacylation ribozyme variant]	0.595	0.468	0.617	0.595	0.805	0.683
AAGUUUGCUAAUAGUCGCUAG [Fam3.1 aminoacylation ribozyme variant]	0.852	1.05	0.813	0.809	1.68	0.852
GAGUUUGCUAACAGUCGCAAG [Fam3.1 aminoacylation ribozyme variant]	1.41	5.6	1.62	1.3	10.7	1.4
AUUCACCGAGGUCAUCGCGUG [Fam2.2 aminoacylation ribozyme variant]	9.71	14.8	16	19.1	117	7.64
CUUCUUCAAACAGUCGGUCUG [Fam1A.1 aminoacylation ribozyme variant]	0.771	0.848	0.821	0.803	0.711	0.697
GUAUUUCAAACAAUCGGUCUG [Fam1A.1 aminoacylation ribozyme variant]	1.04	2.34	1.09	1.02	2.64	1.1
CUACAUCAAAUAAUCGGUCUG [Fam1A.1 aminoacylation ribozyme variant]	0.864	0.824	0.804	0.717	1.42	0.801
AUUACCCGGGUCAUCGAGUCA [Fam2.1 aminoacylation ribozyme variant]	1.16	0.967	1.32	1.22	1.05	1.29
UUACUUCUAACAAUCGGUCUG [Fam1A.1 aminoacylation ribozyme variant]	1.08	0.836	1.09	1.11	0.907	1.08
AUUCUCCUAGGCCAUCGGGUG [Fam2.2 aminoacylation ribozyme variant]	3.74	5.32	5.37	7	33	3.49
AUCACCCUGGUCUUCGAGUGA [Fam2.1 aminoacylation ribozyme variant]	4.74	9.14	8.01	8.44	50.3	3.81
AAGUUUGCUAAUAGGCGGAAG [Fam3.1 aminoacylation ribozyme variant]	0.89	0.922	0.721	0.675	0.916	0.806
AUUACCCUUGUCAUCUAGUGA [Fam2.1 aminoacylation ribozyme variant]	3.81	8.68	7.09	7.22	26.5	3.76
CCAAACUUCAAACAAUCGGUC [Fam1B.1 aminoacylation ribozyme variant]	1.52	42	1.53	2.21	86.6	1.35
AUUGCCCUGGUCAUCGAGUGU [Fam2.1 aminoacylation ribozyme variant]	23.4	65.7	64.6	62.2	448	18.4
AUUAUCCUGGUCAUCGAGUGG [Fam2.1 aminoacylation ribozyme variant]	2.27	4.05	5.06	5.03	6.09	2.19
CUUCUUCAAACAAGCGGUCUG [Fam1A.1 aminoacylation ribozyme variant]	0.958	0.713	0.925	1.04	0.813	1.09
AUUCACCUAGGUCAUCUUGUG [Fam2.2 aminoacylation ribozyme variant]	1.04	0.594	1.13	1.18	1.37	0.835
ACUACCCAGGUCAUCGAGUGA [Fam2.1 aminoacylation ribozyme variant]	3.89	5.32	5.02	6.28	23.2	3.72
AUUUCCCUGGUCAUCUAGUGA [Fam2.1 aminoacylation ribozyme variant]	4.67	11.7	8.93	9.47	76.6	4.45
